Biological target: gp130 extracellular domain (UniProt P40189)
Assay: SPR; gp130 extracellular domain amine-coupled on CM5; fixed excess of IL-6 and differing concentrations of gp80 (0–250 nM) with or without VHH6; 100 μl/min; 1:1 binding model; 25 °C, HBS-P+; BIAcore T200

Chain of IL-6–gp80 complex (IL-6 with gp80V4) (P05231 49-212): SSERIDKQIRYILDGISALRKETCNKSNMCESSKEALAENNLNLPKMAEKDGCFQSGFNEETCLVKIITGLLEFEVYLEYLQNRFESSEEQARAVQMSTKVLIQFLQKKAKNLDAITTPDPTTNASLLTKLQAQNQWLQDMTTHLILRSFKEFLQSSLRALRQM
Chain of IL-6–gp80 complex (IL-6 with gp80V4) (P08887 111-322): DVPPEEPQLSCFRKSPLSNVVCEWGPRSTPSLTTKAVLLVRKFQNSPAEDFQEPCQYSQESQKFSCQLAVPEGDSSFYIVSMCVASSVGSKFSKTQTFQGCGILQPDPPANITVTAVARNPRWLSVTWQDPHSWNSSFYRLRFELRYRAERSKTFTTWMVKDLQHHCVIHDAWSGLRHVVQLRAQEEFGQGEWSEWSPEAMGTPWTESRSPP
Chain of gp130 extracellular domain (P40189 23-619): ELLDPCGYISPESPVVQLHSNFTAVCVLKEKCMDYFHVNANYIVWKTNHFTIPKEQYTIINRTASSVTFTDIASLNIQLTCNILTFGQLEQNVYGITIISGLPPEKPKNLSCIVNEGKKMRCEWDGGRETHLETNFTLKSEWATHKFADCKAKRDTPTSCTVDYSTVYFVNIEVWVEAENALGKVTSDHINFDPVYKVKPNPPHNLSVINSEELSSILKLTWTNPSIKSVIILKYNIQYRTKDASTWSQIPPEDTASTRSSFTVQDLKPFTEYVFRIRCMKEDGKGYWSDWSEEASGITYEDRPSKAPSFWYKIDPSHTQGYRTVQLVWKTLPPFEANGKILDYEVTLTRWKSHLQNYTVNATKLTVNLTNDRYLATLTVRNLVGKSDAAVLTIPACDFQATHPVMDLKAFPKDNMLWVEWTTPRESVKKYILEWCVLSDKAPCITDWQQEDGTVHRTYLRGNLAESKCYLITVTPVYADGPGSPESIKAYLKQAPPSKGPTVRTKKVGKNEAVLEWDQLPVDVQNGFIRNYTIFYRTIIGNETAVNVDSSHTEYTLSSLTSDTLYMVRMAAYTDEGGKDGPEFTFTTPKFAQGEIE

Substance: IL-6–gp80 complex (IL-6 with gp80V4) (from UniProt P05231 49-212; P08887 111-322)
- koff: 0.037 s⁻¹
- kon: 360000 M⁻¹ s⁻¹

— paper PMC5278397
